According to patent publication US20140357577A1, “HIV Membrane Fusion Inhibitors” (priority 2011, published 2014):
Starred links: 1 amine or outer side, 2 acyl side, 3 side chain; linkers in the order of their positions; H or OH if unused. Positions of bridges follow the written chain, without caps; N, C: chain ends. *: point of attachment. cholesteryl‑succinyl = CC(C)CCC[C@@H](C)[C@H]1CC[C@H]2[C@@H]3CC=C4C[C@@H](OC(=O)CCC(=O)*)CC[C@]4(C)[C@H]3CC[C@]12C; pXylylene = c1cc(C[*:2])ccc1C[*:1]; Suc = O=C(CCC(=O)[*:2])[*:1]

What follows are binders tested against gp41 of HIV-1 strain HXB2D with mutation V38A (HIV-1 strain HXB2D, UniProt P04578) (assay: cell-based or functional assay).

Row | Binder | fold change in EC50, HIV-HXB2D V38A mutant
1 | Suc-ANYAALIEALIRAAQEQQEKNEAALR-NH2 (SMILES CC[C@H](C)[C@H](NC(=O)[C@H](CC(C)C)NC(=O)[C@H](C)NC(=O)[C@H](CCC(=O)O)NC(=O)[C@@H](NC(=O)[C@H](CC(C)C)NC(=O)[C@H](C)NC(=O)[C@H](C)NC(=O)[C@H](Cc1ccc(O)cc1)NC(=O)[C@H](CC(N)=O)NC(=O)[C@H](C)NC(=O)CCC(=O)O)[C@@H](C)CC)C(=O)N[C@@H](CCCNC(=N)N)C(=O)N[C@@H](C)C(=O)N[C@@H](C)C(=O)N[C@@H](CCC(N)=O)C(=O)N[C@@H](CCC(=O)O)C(=O)N[C@@H](CCC(N)=O)C(=O)N[C@@H](CCC(N)=O)C(=O)N[C@@H](CCC(=O)O)C(=O)N[C@@H](CCCCN)C(=O)N[C@@H](CC(N)=O)C(=O)N[C@@H](CCC(=O)O)C(=O)N[C@@H](C)C(=O)N[C@@H](C)C(=O)N[C@@H](CC(C)C)C(=O)N[C@@H](CCCNC(=N)N)C(N)=O) [peptide 3] | 74 fold
2 | Ac-ACYAACIEALIRAAQEQQEKNEAALR-NH2 (linker 2-6 via pXylylene; SMILES CC[C@H](C)[C@H](NC(=O)[C@H](CC(C)C)NC(=O)[C@H](C)NC(=O)[C@H](CCC(=O)O)NC(=O)[C@@H](NC(=O)[C@@H]1CSCc2ccc(cc2)CSC[C@H](NC(=O)[C@H](C)NC(C)=O)C(=O)N[C@@H](Cc2ccc(O)cc2)C(=O)N[C@@H](C)C(=O)N[C@@H](C)C(=O)N1)[C@@H](C)CC)C(=O)N[C@@H](CCCNC(=N)N)C(=O)N[C@@H](C)C(=O)N[C@@H](C)C(=O)N[C@@H](CCC(N)=O)C(=O)N[C@@H](CCC(=O)O)C(=O)N[C@@H](CCC(N)=O)C(=O)N[C@@H](CCC(N)=O)C(=O)N[C@@H](CCC(=O)O)C(=O)N[C@@H](CCCCN)C(=O)N[C@@H](CC(N)=O)C(=O)N[C@@H](CCC(=O)O)C(=O)N[C@@H](C)C(=O)N[C@@H](C)C(=O)N[C@@H](CC(C)C)C(=O)N[C@@H](CCCNC(=N)N)C(N)=O) [peptide 68] | 21 fold
3 | Ac-ACYWACIEALIRAAQEQQEKNEAALR-NH2 (linker 2-6 via pXylylene; SMILES CC[C@H](C)[C@H](NC(=O)[C@H](CC(C)C)NC(=O)[C@H](C)NC(=O)[C@H](CCC(=O)O)NC(=O)[C@@H](NC(=O)[C@@H]1CSCc2ccc(cc2)CSC[C@H](NC(=O)[C@H](C)NC(C)=O)C(=O)N[C@@H](Cc2ccc(O)cc2)C(=O)N[C@@H](Cc2c[nH]c3ccccc23)C(=O)N[C@@H](C)C(=O)N1)[C@@H](C)CC)C(=O)N[C@@H](CCCNC(=N)N)C(=O)N[C@@H](C)C(=O)N[C@@H](C)C(=O)N[C@@H](CCC(N)=O)C(=O)N[C@@H](CCC(=O)O)C(=O)N[C@@H](CCC(N)=O)C(=O)N[C@@H](CCC(N)=O)C(=O)N[C@@H](CCC(=O)O)C(=O)N[C@@H](CCCCN)C(=O)N[C@@H](CC(N)=O)C(=O)N[C@@H](CCC(=O)O)C(=O)N[C@@H](C)C(=O)N[C@@H](C)C(=O)N[C@@H](CC(C)C)C(=O)N[C@@H](CCCNC(=N)N)C(N)=O) [peptide 63] | 22 fold
4 | Ac-ACYAACIEALIRAAQEQQEKNEAALR-NH2 (linker 2-6 via ortho‑xylene) [peptide 64] | 15 fold
5 | Ac-ANYLALIEALIRAAQEQQEKNEAALRGSGK(cholesteryl‑succinyl)-NH2 (SMILES CC[C@H](C)[C@H](NC(=O)[C@H](CC(C)C)NC(=O)[C@H](C)NC(=O)[C@H](CCC(=O)O)NC(=O)[C@@H](NC(=O)[C@H](CC(C)C)NC(=O)[C@H](C)NC(=O)[C@H](CC(C)C)NC(=O)[C@H](Cc1ccc(O)cc1)NC(=O)[C@H](CC(N)=O)NC(=O)[C@H](C)NC(C)=O)[C@@H](C)CC)C(=O)N[C@@H](CCCNC(=N)N)C(=O)N[C@@H](C)C(=O)N[C@@H](C)C(=O)N[C@@H](CCC(N)=O)C(=O)N[C@@H](CCC(=O)O)C(=O)N[C@@H](CCC(N)=O)C(=O)N[C@@H](CCC(N)=O)C(=O)N[C@@H](CCC(=O)O)C(=O)N[C@@H](CCCCN)C(=O)N[C@@H](CC(N)=O)C(=O)N[C@@H](CCC(=O)O)C(=O)N[C@@H](C)C(=O)N[C@@H](C)C(=O)N[C@@H](CC(C)C)C(=O)N[C@@H](CCCNC(=N)N)C(=O)NCC(=O)N[C@@H](CO)C(=O)NCC(=O)N[C@@H](CCCCNC(=O)CCC(=O)O[C@H]1CC[C@@]2(C)C(=CC[C@H]3[C@@H]4CC[C@H]([C@H](C)CCCC(C)C)[C@@]4(C)CC[C@@H]32)C1)C(N)=O) [peptide 69] | 1 fold
6 | Ac-ACYAACIEALIRKAQEQQEKNEAALR-NH2 (linker 2-6 via pXylylene; SMILES CC[C@H](C)[C@H](NC(=O)[C@@H]1CSCc2ccc(cc2)CSC[C@H](NC(=O)[C@H](C)NC(C)=O)C(=O)N[C@@H](Cc2ccc(O)cc2)C(=O)N[C@@H](C)C(=O)N[C@@H](C)C(=O)N1)C(=O)N[C@@H](CCC(=O)O)C(=O)N[C@@H](C)C(=O)N[C@@H](CC(C)C)C(=O)N[C@H](C(=O)N[C@@H](CCCNC(=N)N)C(=O)N[C@@H](CCCCN)C(=O)N[C@@H](C)C(=O)N[C@@H](CCC(N)=O)C(=O)N[C@@H](CCC(=O)O)C(=O)N[C@@H](CCC(N)=O)C(=O)N[C@@H](CCC(N)=O)C(=O)N[C@@H](CCC(=O)O)C(=O)N[C@@H](CCCCN)C(=O)N[C@@H](CC(N)=O)C(=O)N[C@@H](CCC(=O)O)C(=O)N[C@@H](C)C(=O)N[C@@H](C)C(=O)N[C@@H](CC(C)C)C(=O)N[C@@H](CCCNC(=N)N)C(N)=O)[C@@H](C)CC) [peptide 71] | 11 fold
7 | Ac-ACYAACIEALIRAAQEQQEKNEAALR-NH2 (linker 2-6 via 2,7‑dimethylnaphthyl) [peptide 66] | 66 fold
8 | Ac-ACYAACIDALIRAAQEQQEKNEAALR-NH2 (linker 2-6 via pXylylene; SMILES CC[C@H](C)[C@H](NC(=O)[C@H](CC(C)C)NC(=O)[C@H](C)NC(=O)[C@H](CC(=O)O)NC(=O)[C@@H](NC(=O)[C@@H]1CSCc2ccc(cc2)CSC[C@H](NC(=O)[C@H](C)NC(C)=O)C(=O)N[C@@H](Cc2ccc(O)cc2)C(=O)N[C@@H](C)C(=O)N[C@@H](C)C(=O)N1)[C@@H](C)CC)C(=O)N[C@@H](CCCNC(=N)N)C(=O)N[C@@H](C)C(=O)N[C@@H](C)C(=O)N[C@@H](CCC(N)=O)C(=O)N[C@@H](CCC(=O)O)C(=O)N[C@@H](CCC(N)=O)C(=O)N[C@@H](CCC(N)=O)C(=O)N[C@@H](CCC(=O)O)C(=O)N[C@@H](CCCCN)C(=O)N[C@@H](CC(N)=O)C(=O)N[C@@H](CCC(=O)O)C(=O)N[C@@H](C)C(=O)N[C@@H](C)C(=O)N[C@@H](CC(C)C)C(=O)N[C@@H](CCCNC(=N)N)C(N)=O) [peptide 70] | 11 fold
9 | Ac-ACYFACIEALIRAAQEQQEKNEAALR-NH2 (linker 2-6 via pXylylene; SMILES CC[C@H](C)[C@H](NC(=O)[C@H](CC(C)C)NC(=O)[C@H](C)NC(=O)[C@H](CCC(=O)O)NC(=O)[C@@H](NC(=O)[C@@H]1CSCc2ccc(cc2)CSC[C@H](NC(=O)[C@H](C)NC(C)=O)C(=O)N[C@@H](Cc2ccc(O)cc2)C(=O)N[C@@H](Cc2ccccc2)C(=O)N[C@@H](C)C(=O)N1)[C@@H](C)CC)C(=O)N[C@@H](CCCNC(=N)N)C(=O)N[C@@H](C)C(=O)N[C@@H](C)C(=O)N[C@@H](CCC(N)=O)C(=O)N[C@@H](CCC(=O)O)C(=O)N[C@@H](CCC(N)=O)C(=O)N[C@@H](CCC(N)=O)C(=O)N[C@@H](CCC(=O)O)C(=O)N[C@@H](CCCCN)C(=O)N[C@@H](CC(N)=O)C(=O)N[C@@H](CCC(=O)O)C(=O)N[C@@H](C)C(=O)N[C@@H](C)C(=O)N[C@@H](CC(C)C)C(=O)N[C@@H](CCCNC(=N)N)C(N)=O) [peptide 61] | 20 fold
10 | Ac-ACYVACIEALIRAAQEQQEKNEAALR-NH2 (linker 2-6 via pXylylene; SMILES CC[C@H](C)[C@H](NC(=O)[C@H](CC(C)C)NC(=O)[C@H](C)NC(=O)[C@H](CCC(=O)O)NC(=O)[C@@H](NC(=O)[C@@H]1CSCc2ccc(cc2)CSC[C@H](NC(=O)[C@H](C)NC(C)=O)C(=O)N[C@@H](Cc2ccc(O)cc2)C(=O)N[C@@H](C(C)C)C(=O)N[C@@H](C)C(=O)N1)[C@@H](C)CC)C(=O)N[C@@H](CCCNC(=N)N)C(=O)N[C@@H](C)C(=O)N[C@@H](C)C(=O)N[C@@H](CCC(N)=O)C(=O)N[C@@H](CCC(=O)O)C(=O)N[C@@H](CCC(N)=O)C(=O)N[C@@H](CCC(N)=O)C(=O)N[C@@H](CCC(=O)O)C(=O)N[C@@H](CCCCN)C(=O)N[C@@H](CC(N)=O)C(=O)N[C@@H](CCC(=O)O)C(=O)N[C@@H](C)C(=O)N[C@@H](C)C(=O)N[C@@H](CC(C)C)C(=O)N[C@@H](CCCNC(=N)N)C(N)=O) [peptide 62] | 15 fold
11 | Ac-ACYAACIEALIRAAQEQQEKNEAALR-NH2 (linker 2-6 via meta‑xylene) [peptide 65] | 16 fold
12 | Suc-ACYAACIEALIRAAQEQQEKNEAALR-NH2 (linker 2-6 via pXylylene; SMILES CC[C@H](C)[C@H](NC(=O)[C@H](CC(C)C)NC(=O)[C@H](C)NC(=O)[C@H](CCC(=O)O)NC(=O)[C@@H](NC(=O)[C@@H]1CSCc2ccc(cc2)CSC[C@H](NC(=O)[C@H](C)NC(=O)CCC(=O)O)C(=O)N[C@@H](Cc2ccc(O)cc2)C(=O)N[C@@H](C)C(=O)N[C@@H](C)C(=O)N1)[C@@H](C)CC)C(=O)N[C@@H](CCCNC(=N)N)C(=O)N[C@@H](C)C(=O)N[C@@H](C)C(=O)N[C@@H](CCC(N)=O)C(=O)N[C@@H](CCC(=O)O)C(=O)N[C@@H](CCC(N)=O)C(=O)N[C@@H](CCC(N)=O)C(=O)N[C@@H](CCC(=O)O)C(=O)N[C@@H](CCCCN)C(=O)N[C@@H](CC(N)=O)C(=O)N[C@@H](CCC(=O)O)C(=O)N[C@@H](C)C(=O)N[C@@H](C)C(=O)N[C@@H](CC(C)C)C(=O)N[C@@H](CCCNC(=N)N)C(N)=O) [peptide 67] | 30 fold
